Results on three molecules are retold here after patent US20180016312A1 (Pieris, published 2018).

The target of assay [1] is benchmark antibody 1 (SEQ ID NOs: 17/18). Nature of the assay: solution competition ELISA; 0.1 nM SEQ ID NO: 17/18 with varied soluble ligand, free antibody captured on immobilised hAng-2. On the technique in general: In an ELISA, binding on a coated surface is turned into a signal by an enzyme label.
For assay [2], the target named is T1, hNGAL lipocalin mutein SEQ ID NO: 1.
T1 construct: Mutein of mature hNGAL
T1 chain: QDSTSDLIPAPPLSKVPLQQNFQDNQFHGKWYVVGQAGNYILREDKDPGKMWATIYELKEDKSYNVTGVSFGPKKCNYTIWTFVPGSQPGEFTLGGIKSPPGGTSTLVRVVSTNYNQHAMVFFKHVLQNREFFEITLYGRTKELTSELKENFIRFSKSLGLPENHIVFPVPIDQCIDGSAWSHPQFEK
Put plainly: solution competition ELISA; 0.1 nM SEQ ID NO: 1 with varied soluble ligand, free mutein captured on immobilised hAng-2. On the procedure:
(§1) In the following detailed experimental protocol, incubation and washing steps were performed as described above in the competition ELISA protocol (see Example 5).
(§2) The residual supernatants were discarded and 20 μl HRP-labeled anti-lipocalin-mutein antibody was added at a predetermined optimal concentration in PBS-T/BSA and incubated for 1 h at RT. […] After washing, 20 μl fluorogenic HRP substrate (Quantablue, Pierce) was added to each well, and the reaction was allowed to proceed for 60 minutes. The fluorescence intensity of every well on the plate was read using a Genios Plus Microplate reader (Tecan).

Assay [3] concerns the target T2, hNGAL lipocalin mutein SEQ ID NO: 8.
T2 construct: Mutein of mature hNGAL; Biotinylated with NHS-PEG4-Biotin for the SPR assay
T2 chain: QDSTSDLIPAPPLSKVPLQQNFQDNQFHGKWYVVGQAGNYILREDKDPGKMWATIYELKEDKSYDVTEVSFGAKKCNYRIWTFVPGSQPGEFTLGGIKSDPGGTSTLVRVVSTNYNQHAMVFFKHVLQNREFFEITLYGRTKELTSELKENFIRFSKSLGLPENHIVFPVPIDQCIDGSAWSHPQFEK
Nature of the assay: solution competition ELISA; 0.1 nM SEQ ID NO: 8 with varied soluble ligand, free mutein captured on immobilised hAng-2. On the procedure:
as §1, §2

Assay [4] concerns the target T3, hNGAL lipocalin mutein SEQ ID NO: 11.
T3 construct: Mutein of mature hNGAL; Biotinylated with NHS-PEG4-Biotin for the SPR assay
T3 chain: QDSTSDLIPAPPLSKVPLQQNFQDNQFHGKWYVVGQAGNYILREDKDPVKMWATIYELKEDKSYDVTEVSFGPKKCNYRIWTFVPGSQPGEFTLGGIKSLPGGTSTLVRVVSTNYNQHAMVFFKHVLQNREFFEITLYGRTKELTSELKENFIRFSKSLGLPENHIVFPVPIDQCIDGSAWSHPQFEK
Nature of the assay: solution competition ELISA; 0.1 nM SEQ ID NO: 11 with varied soluble ligand, free mutein captured on immobilised hAng-2. As for the experimental part: as §1, §2

In assay [5] the target is T4, hNGAL lipocalin mutein SEQ ID NO: 3.
T4 construct: Mutein of mature hNGAL
T4 chain: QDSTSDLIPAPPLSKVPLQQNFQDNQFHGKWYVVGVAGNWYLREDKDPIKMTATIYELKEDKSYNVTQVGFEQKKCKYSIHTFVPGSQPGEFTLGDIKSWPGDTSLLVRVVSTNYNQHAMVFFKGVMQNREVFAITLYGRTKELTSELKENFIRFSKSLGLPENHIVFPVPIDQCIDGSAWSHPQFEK
Nature of the assay: solution competition ELISA; 0.1 nM SEQ ID NO: 3 with varied soluble ligand, free mutein captured on immobilised hAng-2. As for the experimental part:
as §1, §2

In assay [6] the target is T5, hNGAL lipocalin mutein SEQ ID NO: 7.
T5 construct: Mutein of mature hNGAL; Biotinylated with NHS-PEG4-Biotin for the SPR assay
T5 chain: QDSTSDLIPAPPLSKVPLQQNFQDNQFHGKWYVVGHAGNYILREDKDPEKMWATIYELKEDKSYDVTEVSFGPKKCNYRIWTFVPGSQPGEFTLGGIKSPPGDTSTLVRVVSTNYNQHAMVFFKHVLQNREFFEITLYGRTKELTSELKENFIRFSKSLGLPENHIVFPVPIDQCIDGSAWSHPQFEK
Nature of the assay: solution competition ELISA; 0.1 nM SEQ ID NO: 7 with varied soluble ligand, free mutein captured on immobilised hAng-2. On the procedure: as §1, §2

In assay [7] the target is T6, hNGAL lipocalin mutein SEQ ID NO: 9.
T6 construct: Mutein of mature hNGAL; Biotinylated with NHS-PEG4-Biotin for the SPR assay
T6 chain: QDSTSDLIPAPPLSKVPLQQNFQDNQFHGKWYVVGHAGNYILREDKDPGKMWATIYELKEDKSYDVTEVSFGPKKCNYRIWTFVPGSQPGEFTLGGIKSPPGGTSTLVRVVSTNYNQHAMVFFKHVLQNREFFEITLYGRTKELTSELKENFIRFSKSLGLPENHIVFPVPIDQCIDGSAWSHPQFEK
Put plainly: solution competition ELISA; 0.1 nM SEQ ID NO: 9 with varied soluble ligand, free mutein captured on immobilised hAng-2. On the procedure: as §1, §2

B1: human angiopoietin-2 (ligand, UniProt O15123 19-496, looked up)
chain: YNNFRKSMDSIGKKQYQVQHGSCSYTFLLPEMDNCRSSSSPYVSNAVQRDAPLEYDDSVQRLQVLENIMENNTQWLMKLENYIQDNMKKEMVEIQQNAVQNQTAVMIEIGTNLLNQTAEQTRKLTDVEAQVLNQTTRLELQLLEHSLSTNKLEKQILDQTSEINKLQDKNSFLEKKVLAMEDKHIIQLQSIKEEKDQLQVLVSKQNSIIEELEKKIVTATVNNSVLQKQQHDLMETVNNLLTMMSTSNSAKDPTVAKEEQISFRDCAEVFKSGHTTNGIYTLTFPNSTEEIKAYCDMEAGGGGWTIIQRREDGSVDFQRTWKEYKVGFGNPSGEYWLGNEFVSQLTNQQRYVLKIHLKDWEGNEAYSLYEHFYLSSEELNYRIHLKGLTGTAGKISSISQPGNDFSTKDGDNDKCICKCSQMLTGGWWFDACGPSNLNGMYYPQRQNTNKFNGIKWYYWKGSGYSLKATTMMIRPADF
notes: Bought recombinant protein with a His tag (detected by anti-HIS-tag antibody); also called human Ang-2; hAng-2
Broadly, the IC50 is the point on the concentration scale where inhibition reaches its midpoint. The low end stands for greater potency in that assay, the high end for weaker potency in that assay. On to B1, for which the IC50 in assay [1] is 0.6 nM; in assay [2], 2.5 nM; in assay [3], 0.5 nM; in assay [4], 0.49 nM; in assay [5], 1.4 nM; in assay [6], 0.41 nM. The IC50 in assay [7] turned out to be 0.76 nM.

B2: human angiopoietin-1 (ligand, UniProt Q15389 20-498, looked up)
chain: SNQRRSPENSGRRYNRIQHGQCAYTFILPEHDGNCRESTTDQYNTNALQRDAPHVEPDFSSQKLQHLEHVMENYTQWLQKLENYIVENMKSEMAQIQQNAVQNHTATMLEIGTSLLSQTAEQTRKLTDVETQVLNQTSRLEIQLLENSLSTYKLEKQLLQQTNEILKIHEKNSLLEHKILEMEGKHKEELDTLKEEKENLQGLVTRQTYIIQELEKQLNRATTNNSVLQKQQLELMDTVHNLVNLCTKEGVLLKGGKREEEKPFRDCADVYQAGFNKSGIYTIYINNMPEPKKVFCNMDVNGGGWTVIQHREDGSLDFQRGWKEYKMGFGNPSGEYWLGNEFIFAITSQRQYMLRIELMDWEGNRAYSQYDRFHIGNEKQNYRLYLKGHTGTAGKQSSLILHGADFSTKDADNDNCMCKCALMLTGGWWFDACGPSNLNGMFYTAGQNHGKLNGIKWHYFKGPSYSLRSTTMMIRPLDF
notes: Bought recombinant protein; also called human Ang-1; hAng-1
Turning to B2, the IC50 in assay [1] was 26 nM; in assay [3], 9.3 nM; in assay [4], 0.89 nM; in assay [6], 0.47 nM; in assay [7] it was 1.9 nM.

B3: mouse angiopoietin-2 (ligand, UniProt O35608 19-496, looked up)
chain: YSNFRKSVDSTGRRQYQVQNGPCSYTFLLPETDSCRSSSSPYMSNAVQRDAPLDYDDSVQRLQVLENILENNTQWLMKLENYIQDNMKKEMVEIQQNVVQNQTAVMIEIGTSLLNQTAAQTRKLTDVEAQVLNQTTRLELQLLQHSISTNKLEKQILDQTSEINKLQNKNSFLEQKVLDMEGKHSEQLQSMKEQKDELQVLVSKQSSVIDELEKKLVTATVNNSLLQKQQHDLMETVNSLLTMMSSPNSKSSVAIRKEEQTTFRDCAEIFKSGLTTSGIYTLTFPNSTEEIKAYCDMDVGGGGWTVIQHREDGSVDFQRTWKEYKEGFGSPLGEYWLGNEFVSQLTGQHRYVLKIQLKDWEGNEAHSLYDHFYLAGEESNYRIHLTGLTGTAGKISSISQPGSDFSTKDSDNDKCICKCSQMLSGGWWFDACGPSNLNGQYYPQKQNTNKFNGIKWYYWKGSGYSLKATTMMIRPADF
notes: Bought recombinant protein; also called mouse Ang-2; mAng-2
Consider B3, for which the IC50 in assay [1] turned out to be 0.07 nM; in assay [2], 0.65 nM; in assay [3], 0.08 nM; in assay [4], 0.05 nM; in assay [5], 1.8 nM; in assay [6], 0.05 nM. This molecule also returned an IC50 in assay [7] of 0.11 nM.
